These results are taken from publication doi:10.1101/2021.10.29.466147 (bioRxiv, 2021).

The target of series [1] is T1, Ycs4, HEAT-repeat subunit I of S. cerevisiae condensin (S. cerevisiae, UniProt Q06156 1-1176).
T1 sequence: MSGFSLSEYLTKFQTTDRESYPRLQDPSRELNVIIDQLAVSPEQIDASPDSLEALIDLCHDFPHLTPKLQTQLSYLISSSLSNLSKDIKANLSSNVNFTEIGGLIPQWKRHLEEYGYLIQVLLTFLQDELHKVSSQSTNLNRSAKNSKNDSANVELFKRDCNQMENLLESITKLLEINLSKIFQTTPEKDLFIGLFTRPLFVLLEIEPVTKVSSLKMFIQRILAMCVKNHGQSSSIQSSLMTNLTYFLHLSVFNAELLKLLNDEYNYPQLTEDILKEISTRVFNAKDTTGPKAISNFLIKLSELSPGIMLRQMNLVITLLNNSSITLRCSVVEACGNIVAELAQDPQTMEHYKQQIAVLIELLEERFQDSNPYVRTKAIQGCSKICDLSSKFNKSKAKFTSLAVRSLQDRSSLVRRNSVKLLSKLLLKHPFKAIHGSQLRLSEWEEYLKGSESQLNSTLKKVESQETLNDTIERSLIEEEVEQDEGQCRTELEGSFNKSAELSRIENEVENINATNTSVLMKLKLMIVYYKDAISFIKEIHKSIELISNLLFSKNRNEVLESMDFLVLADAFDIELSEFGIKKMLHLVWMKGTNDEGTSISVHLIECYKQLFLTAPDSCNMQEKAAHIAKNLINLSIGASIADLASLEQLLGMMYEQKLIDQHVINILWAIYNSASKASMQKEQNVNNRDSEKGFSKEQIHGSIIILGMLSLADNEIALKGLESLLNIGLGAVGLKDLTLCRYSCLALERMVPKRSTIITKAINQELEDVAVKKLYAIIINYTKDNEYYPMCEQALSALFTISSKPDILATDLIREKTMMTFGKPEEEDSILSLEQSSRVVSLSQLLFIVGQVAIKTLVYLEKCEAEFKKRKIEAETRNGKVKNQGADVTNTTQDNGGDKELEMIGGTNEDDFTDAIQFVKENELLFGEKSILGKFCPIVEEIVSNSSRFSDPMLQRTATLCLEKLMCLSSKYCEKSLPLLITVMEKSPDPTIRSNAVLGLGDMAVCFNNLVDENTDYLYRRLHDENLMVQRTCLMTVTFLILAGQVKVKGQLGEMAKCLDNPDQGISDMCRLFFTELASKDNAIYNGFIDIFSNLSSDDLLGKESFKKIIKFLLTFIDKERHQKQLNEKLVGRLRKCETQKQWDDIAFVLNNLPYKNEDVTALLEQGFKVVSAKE
The series is described as follows: cryo-EM structure.

Series [2] concerns the target T2, Ycg1, HEAT-repeat subunit II of S. cerevisiae condensin (S. cerevisiae, UniProt Q06680 1-1035).
T2 sequence (looked up): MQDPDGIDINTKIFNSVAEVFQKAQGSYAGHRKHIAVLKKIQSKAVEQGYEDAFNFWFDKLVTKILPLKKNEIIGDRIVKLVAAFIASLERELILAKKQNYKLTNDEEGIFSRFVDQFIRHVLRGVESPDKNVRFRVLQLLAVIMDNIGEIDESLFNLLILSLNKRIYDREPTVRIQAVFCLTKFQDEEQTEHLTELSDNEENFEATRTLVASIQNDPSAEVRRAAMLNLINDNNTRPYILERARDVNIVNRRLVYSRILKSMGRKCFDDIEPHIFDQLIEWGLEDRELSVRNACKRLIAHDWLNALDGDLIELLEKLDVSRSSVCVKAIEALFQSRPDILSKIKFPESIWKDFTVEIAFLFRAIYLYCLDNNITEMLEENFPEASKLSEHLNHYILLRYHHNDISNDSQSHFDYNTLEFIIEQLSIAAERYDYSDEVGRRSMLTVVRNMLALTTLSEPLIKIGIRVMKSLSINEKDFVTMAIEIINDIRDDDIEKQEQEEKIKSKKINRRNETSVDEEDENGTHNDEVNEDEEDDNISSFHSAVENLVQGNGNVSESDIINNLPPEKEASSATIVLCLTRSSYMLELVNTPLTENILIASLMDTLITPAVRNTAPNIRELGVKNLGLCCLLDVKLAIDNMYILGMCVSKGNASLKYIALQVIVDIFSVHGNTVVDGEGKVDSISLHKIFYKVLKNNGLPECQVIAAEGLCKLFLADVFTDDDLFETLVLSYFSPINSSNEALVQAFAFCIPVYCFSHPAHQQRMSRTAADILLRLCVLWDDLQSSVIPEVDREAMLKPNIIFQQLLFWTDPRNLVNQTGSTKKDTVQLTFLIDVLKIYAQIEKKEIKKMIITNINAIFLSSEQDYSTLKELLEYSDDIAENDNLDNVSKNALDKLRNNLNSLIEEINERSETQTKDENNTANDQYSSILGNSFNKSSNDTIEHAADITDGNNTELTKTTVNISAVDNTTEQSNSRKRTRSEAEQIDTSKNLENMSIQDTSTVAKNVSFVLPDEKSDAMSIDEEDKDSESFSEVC
The series is described as follows: co-purification.

Series [3] concerns the target condensin holo complex Smc2-Smc4-Brn1-Ycs4-Ycg1, Walker B EQ mutant (Saccharomyces cerevisiae, UniProt P38989;Q12267;P38170;Q06156;Q06680 1-1170;1-1418;1-754;1-1176;1-1035, E1113Q;E1352Q). The series is described as follows: cryo-EM.

Sequence of condensin holo complex Smc2-Smc4-Brn1-Ycs4-Ycg1, Walker B EQ mutant (P38989 whole entry E1113Q, chain 1 of 2): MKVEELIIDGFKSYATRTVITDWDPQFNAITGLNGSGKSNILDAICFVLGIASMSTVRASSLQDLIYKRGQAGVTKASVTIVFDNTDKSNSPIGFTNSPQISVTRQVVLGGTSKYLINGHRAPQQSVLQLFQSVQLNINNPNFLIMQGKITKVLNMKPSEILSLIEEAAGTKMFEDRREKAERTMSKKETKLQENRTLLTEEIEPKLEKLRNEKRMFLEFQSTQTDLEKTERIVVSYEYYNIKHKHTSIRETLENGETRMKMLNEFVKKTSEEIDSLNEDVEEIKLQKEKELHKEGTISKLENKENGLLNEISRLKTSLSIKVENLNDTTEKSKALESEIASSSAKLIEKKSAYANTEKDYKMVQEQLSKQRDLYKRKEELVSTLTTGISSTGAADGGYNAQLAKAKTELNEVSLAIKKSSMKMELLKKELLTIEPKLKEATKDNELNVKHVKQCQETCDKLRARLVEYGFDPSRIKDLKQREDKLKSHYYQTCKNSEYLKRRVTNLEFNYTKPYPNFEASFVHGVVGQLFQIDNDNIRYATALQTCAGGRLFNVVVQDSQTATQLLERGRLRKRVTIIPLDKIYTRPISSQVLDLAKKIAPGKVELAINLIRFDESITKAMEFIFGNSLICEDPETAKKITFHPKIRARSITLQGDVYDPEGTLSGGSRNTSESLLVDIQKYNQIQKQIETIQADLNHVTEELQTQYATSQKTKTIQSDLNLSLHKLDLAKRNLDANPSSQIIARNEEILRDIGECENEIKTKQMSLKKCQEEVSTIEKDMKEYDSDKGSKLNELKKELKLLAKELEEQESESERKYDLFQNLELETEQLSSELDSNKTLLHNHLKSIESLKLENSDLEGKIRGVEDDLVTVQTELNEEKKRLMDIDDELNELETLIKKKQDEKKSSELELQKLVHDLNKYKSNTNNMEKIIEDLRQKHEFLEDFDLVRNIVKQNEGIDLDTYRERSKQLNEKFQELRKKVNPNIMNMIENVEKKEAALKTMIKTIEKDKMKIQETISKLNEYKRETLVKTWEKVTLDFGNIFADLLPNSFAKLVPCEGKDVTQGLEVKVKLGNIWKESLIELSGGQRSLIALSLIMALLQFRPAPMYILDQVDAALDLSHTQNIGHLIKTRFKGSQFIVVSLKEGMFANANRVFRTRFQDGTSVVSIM
Sequence of condensin holo complex Smc2-Smc4-Brn1-Ycs4-Ycg1, Walker B EQ mutant (Q12267 whole entry E1352Q, chain 2 of 2): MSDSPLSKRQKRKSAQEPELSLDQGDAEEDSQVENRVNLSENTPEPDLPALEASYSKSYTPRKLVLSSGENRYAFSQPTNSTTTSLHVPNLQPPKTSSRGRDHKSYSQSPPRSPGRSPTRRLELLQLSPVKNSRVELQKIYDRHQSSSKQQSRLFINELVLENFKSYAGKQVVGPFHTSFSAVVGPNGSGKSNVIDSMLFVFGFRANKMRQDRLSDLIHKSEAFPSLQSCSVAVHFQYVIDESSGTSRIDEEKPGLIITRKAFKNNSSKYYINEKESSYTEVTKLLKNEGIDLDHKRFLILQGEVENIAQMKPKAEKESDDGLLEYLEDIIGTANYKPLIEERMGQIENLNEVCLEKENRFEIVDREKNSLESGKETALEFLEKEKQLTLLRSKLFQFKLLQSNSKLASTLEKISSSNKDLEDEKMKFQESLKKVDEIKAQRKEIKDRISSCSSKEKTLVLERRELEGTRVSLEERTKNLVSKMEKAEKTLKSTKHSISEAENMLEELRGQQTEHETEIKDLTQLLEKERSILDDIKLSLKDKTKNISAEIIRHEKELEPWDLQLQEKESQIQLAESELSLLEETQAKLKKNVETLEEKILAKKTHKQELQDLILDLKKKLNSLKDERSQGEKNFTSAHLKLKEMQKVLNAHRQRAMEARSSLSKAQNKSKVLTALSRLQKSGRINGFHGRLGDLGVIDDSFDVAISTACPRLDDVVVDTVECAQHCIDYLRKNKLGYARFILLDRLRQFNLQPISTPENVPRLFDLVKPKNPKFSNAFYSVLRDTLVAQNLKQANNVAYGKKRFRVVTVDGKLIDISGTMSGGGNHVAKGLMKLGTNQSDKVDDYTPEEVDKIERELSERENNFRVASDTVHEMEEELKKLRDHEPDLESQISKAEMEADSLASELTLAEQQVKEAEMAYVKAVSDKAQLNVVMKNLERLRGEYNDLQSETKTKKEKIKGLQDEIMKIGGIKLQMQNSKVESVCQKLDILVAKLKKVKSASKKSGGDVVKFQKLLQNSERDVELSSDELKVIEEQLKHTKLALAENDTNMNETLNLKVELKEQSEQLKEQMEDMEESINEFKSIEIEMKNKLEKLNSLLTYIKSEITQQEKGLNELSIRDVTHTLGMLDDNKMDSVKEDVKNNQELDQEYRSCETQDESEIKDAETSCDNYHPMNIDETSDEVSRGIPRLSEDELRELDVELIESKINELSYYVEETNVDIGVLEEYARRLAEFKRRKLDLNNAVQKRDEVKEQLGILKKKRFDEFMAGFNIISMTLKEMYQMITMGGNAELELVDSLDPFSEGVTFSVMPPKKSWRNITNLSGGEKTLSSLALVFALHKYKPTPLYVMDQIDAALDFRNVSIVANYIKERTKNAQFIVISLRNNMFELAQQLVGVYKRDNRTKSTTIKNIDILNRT

B1: Brn1-His12-HA3, kleisin subunit of S. cerevisiae condensin (natural protein)
chain: MTTQLRYENNDDDERVEYNLFTNRSTMMANFEEWIKMATDNKINSRNSWNFALIDYFYDLDVLKDGENNINFQKASATLDGCIKIYSSRVDSVTTETGKLLSGLAQRKTNGASNGDDSNGGNGEGLGGDSDEANIEIDPLTGMPISNDPDVNNTRRRVYNRVLETTLVEFETIKMKELDQELIIDPLFKKALVDFDEGGAKSLLLNTLNIDNTARVIFDASIKDTQNVGQGKLQRKEEELIERDSLVDDENEPSQSLISTRNDSTVNDSVISAPSMEDEILSLGMDFIKFDQIAVCEISGSIEQLRNVVEDINQAKDFIENVNNRFDNFLTEEELQAAVPDNAEDDSDGFDMGMQQELCYPDENHDNTSHDEQDDDNVNSTTGSIFEKDLMAYFDENLNRNWRGREHWKVRNFKKANLVNKESDLLEETRTTIGDTTDKNTTDDKSMDTKKKHKQKKVLEIDFFKTDDSFEDKVFASKGRTKIDMPIKNRKNDTHYLLPDDFHFSTDRITRLFIKPGQKMSLFSHRKHTRGDVSSGLFEKSTVSANHSNNDIPTIADEHFWADNYERKEQEEKEKEQSKEVGDVVGGALDNPFEDDMDGVDFNQAFEGTDDNEEASVKLDLQDDEDHKFPIRENKVTYSRVSKKVDVRRLKKNVWRSINNLIQEHDSRKNREQSSNDSETHTEDESTKELKFSDIIQGISKMYSDDTLKDISTSFCFICLLHLANEHGLQITHTENYNDLIVNYEDLATTQAAS
For B1, the binding result in series [1] and in series [2] was “binds” each time.

B2: 50-bp dsDNA (cryo-EM) (dsDNA)
DNA 1: GTTGACAGTGTCGCAACCTGCACAGGCAAGCTGCTGAGTCTGGTGTAGAC
DNA 2: GTCTACACCAGACTCAGCAGCTTGCCTGTGCAGGTTGCGACACTGTCAAC
As to B2, the binding result in series [3] is given as “binds”.
